Test [1] deals with T1, ABCA1 (Mus musculus, UniProt P41233).
T1 construct: treated (18 h) with a cAMP analog to induce ABCA1 protein expression; endogenous in cells; host or cells: J774 macrophages
Description: ABCA1-dependent [3H]cholesterol efflux from J774 macrophages with and without cAMP. The class given is cell-based. The source says:
Suitable cholesterol efflux assays are described in, e.g., Bielicki, J. K and Oda, M. N., Biochemistry, 41:2089-2096 (2002); Jia et al., Biochem. Biophys. Res. Common., 297:206-213 (2002). In some embodiments, a polypeptide known to mediate cholesterol efflux (e.g., helix 9/10 of Apo A-I) is used to screen for additional mediators of cholesterol efflux in a cell based assay. For example, cell lines in which cholesterol efflux can be enhanced using a cAMP analog that up-regulates ABCA1 protein expression (e.g., J774 macrophages) can conveniently be used to assess the ability of a polypeptide of the present invention to mediate cholesterol efflux. The cells are incubated with labeled cholesterol (e.g., [^3H]cholesterol) under conditions appropriate for cholesterol uptake by the cells. Thus, cAMP or cAMP analogs (e.g., CPT-cAMP) are incubated with the cells for a suitable time before the initiation of cellular cholesterol efflux, i.e., prior to contacting the cells with a test polypeptide. Measurement of labeled cholesterol appearing in the medium is used to determine the cholesterol efflux mediating activity of the test polypeptide.
Aliphatic analogs of ATI-5261 lacking phenylalanine residues retained potent ABCA1 selective cholesterol efflux activity (FIG. 7). J774 macrophages were labeled (48 h) with [^3H]cholesterol and treated (18 h) with a cAMP analog to induce ABCA1 protein expression; cells incubated in the absence of cAMP (left bars) served as controls. […] Peptides were used at a concentration of 30 μg/ml, which was maximal for promoting cholesterol efflux activity. Panel B—Dependence of cholesterol efflux on the concentration of peptides. […] Results are expressed as the difference in cholesterol efflux (%/4 h) observed using cAMP treated vs. non-treated J774 cells. Values are means±SD, n=3.

The target of the next test is T2, ABCG1 (Homo sapiens, UniProt P45844).
T2 construct: expressed in transfected cells; host or cells: BHK cells, stably transfected
Description: ABCG1 mediated cholesterol efflux from BHK cells stably transfected with ABCG1. The format is cell-based. As to conditions: BHK cells ABCG1 vs. mock transfected, 50 μg peptide/ml serum-free medium. The method, then:
To further evaluate potential anti-atherogenic mechanisms of CS6253, BHK cells stably transfected with ABCG1 and mock-transfected control cells were labeled with [3H]cholesterol and used in efflux experiments. The citrulline form of LeuATI-5261 (CS6253) lipidated with POPC and ATI-5261 were used as cholesterol efflux acceptors at 50 μg peptide/ml serum-free medium. Panel A—Time-course for ABCG1 mediated cholesterol efflux from cells to lipid-free CS6253 peptide or CS6253:POPC complexes. […] Panel B—Comparison between CS6253 and ATI-5261 in mediating cellular cholesterol efflux via ABCG1. [3H]cholesterol labeled BHK cells (ABCG1 vs. mock transfected) were incubated with either lipid-free peptide or peptides formulated with POPC.

The test system of a further test is human plasma. The test can be described thus: Cholesterol efflux activity of human plasma treated with lipid-free peptide (J774 cells). The format is cell-based. The settings on record: human plasma with 300 μg/ml peptide 5 minutes (4° C.), diluted to 1%, cAMP treated J774 cells, vs vehicle-treated plasma. The protocol: (§1) To test whether CS6253 exerts anti-atherogenic effects in a biological milieu, human plasma was exposed (5 min) to lipid-free peptide. Interactions of CS6253 with HDL and activity of plasma to stimulate cholesterol efflux was assessed, using J774 macrophages labeled with [^3H]cholesterol. Panel A—Cholesterol efflux activity of plasma treated with lipid-free peptides. Human plasma was incubated with 300 μg/ml peptides for 5 minutes (4° C.), diluted to 1% in serum-free RPMI-1640 culture medium and immediately added to [^3H]cholesterol-labeled J774 cells. […] Panel B—Induction of preβ HDL upon treatment of human plasma with CS6253. Plasma was exposed to a small amount of peptide relative to endogenous apoA-I (1:10 mole ratio, respectively) and formation of preβ HDL assessed by 2D non-denaturing gradient gel electrophoresis (NDGGE) and western blot analysis. […] This is consistent with no peptide being associated with the preβ HDL fraction, indicating the particles were authentic preβ particles composed on endogenous apoA-I.

Test [2] has as its target T1, ABCA1. Description: ABCA1-dependent [3H]cholesterol efflux from J774 macrophages with and without cAMP. The format is cell-based. Also on record: ABCA1-dependent cholesterol efflux: dose or concentration left out as unconfirmed.
A further test has as its system HDL in human plasma. The test can be described thus: preβ HDL formation in human plasma, 2D NDGGE and western blot. The protocol:
as §1
A general note: In western blotting, separated proteins are transferred to a membrane and probed.

In another test the test system is hamsters. The test can be described thus: Lipoprotein profile in hamsters after sc injection (ion mobility, 2D gel). The class given is in vivo, hamster. The method, then:
This example employed peptide T5237-4 EVCit[…]it[…] (SEQ ID NO:2) (Cit=citrulline). […] Following removal of albumin by centrifugations plasma was injected and lipoproteins separated with gas-phase differential electrophoretic macromolecular mobility-based method (ion mobility, or IM) (Caulfield et al. Clin Chem 2008 54:8 1307-16). […] The panel in the upper right hand corner is derived from a 2D gel separation (size and charge separation).

Where [3] appears, read: cAMP treated J774 cells, increasing concentration of peptides, 4 h.
Setting [4] is: hamsters, 10, 30 and 100 mg/kg sc, plasma 4 h, dose-response.

The values that follow come from patent US9416162B2, “Peptides having reduced toxicity that stimulate cholesterol efflux” (The Regents of the University of California, priority 2013, dated 2016).

“Also recorded” adds a separate entry of the source. Non-standard residues stand in square brackets, D forms with d. No end group written: not given here. Cit = NC(=O)NCCC[C@H](N)C(=O)O

T1 sequence (P41233 whole entry): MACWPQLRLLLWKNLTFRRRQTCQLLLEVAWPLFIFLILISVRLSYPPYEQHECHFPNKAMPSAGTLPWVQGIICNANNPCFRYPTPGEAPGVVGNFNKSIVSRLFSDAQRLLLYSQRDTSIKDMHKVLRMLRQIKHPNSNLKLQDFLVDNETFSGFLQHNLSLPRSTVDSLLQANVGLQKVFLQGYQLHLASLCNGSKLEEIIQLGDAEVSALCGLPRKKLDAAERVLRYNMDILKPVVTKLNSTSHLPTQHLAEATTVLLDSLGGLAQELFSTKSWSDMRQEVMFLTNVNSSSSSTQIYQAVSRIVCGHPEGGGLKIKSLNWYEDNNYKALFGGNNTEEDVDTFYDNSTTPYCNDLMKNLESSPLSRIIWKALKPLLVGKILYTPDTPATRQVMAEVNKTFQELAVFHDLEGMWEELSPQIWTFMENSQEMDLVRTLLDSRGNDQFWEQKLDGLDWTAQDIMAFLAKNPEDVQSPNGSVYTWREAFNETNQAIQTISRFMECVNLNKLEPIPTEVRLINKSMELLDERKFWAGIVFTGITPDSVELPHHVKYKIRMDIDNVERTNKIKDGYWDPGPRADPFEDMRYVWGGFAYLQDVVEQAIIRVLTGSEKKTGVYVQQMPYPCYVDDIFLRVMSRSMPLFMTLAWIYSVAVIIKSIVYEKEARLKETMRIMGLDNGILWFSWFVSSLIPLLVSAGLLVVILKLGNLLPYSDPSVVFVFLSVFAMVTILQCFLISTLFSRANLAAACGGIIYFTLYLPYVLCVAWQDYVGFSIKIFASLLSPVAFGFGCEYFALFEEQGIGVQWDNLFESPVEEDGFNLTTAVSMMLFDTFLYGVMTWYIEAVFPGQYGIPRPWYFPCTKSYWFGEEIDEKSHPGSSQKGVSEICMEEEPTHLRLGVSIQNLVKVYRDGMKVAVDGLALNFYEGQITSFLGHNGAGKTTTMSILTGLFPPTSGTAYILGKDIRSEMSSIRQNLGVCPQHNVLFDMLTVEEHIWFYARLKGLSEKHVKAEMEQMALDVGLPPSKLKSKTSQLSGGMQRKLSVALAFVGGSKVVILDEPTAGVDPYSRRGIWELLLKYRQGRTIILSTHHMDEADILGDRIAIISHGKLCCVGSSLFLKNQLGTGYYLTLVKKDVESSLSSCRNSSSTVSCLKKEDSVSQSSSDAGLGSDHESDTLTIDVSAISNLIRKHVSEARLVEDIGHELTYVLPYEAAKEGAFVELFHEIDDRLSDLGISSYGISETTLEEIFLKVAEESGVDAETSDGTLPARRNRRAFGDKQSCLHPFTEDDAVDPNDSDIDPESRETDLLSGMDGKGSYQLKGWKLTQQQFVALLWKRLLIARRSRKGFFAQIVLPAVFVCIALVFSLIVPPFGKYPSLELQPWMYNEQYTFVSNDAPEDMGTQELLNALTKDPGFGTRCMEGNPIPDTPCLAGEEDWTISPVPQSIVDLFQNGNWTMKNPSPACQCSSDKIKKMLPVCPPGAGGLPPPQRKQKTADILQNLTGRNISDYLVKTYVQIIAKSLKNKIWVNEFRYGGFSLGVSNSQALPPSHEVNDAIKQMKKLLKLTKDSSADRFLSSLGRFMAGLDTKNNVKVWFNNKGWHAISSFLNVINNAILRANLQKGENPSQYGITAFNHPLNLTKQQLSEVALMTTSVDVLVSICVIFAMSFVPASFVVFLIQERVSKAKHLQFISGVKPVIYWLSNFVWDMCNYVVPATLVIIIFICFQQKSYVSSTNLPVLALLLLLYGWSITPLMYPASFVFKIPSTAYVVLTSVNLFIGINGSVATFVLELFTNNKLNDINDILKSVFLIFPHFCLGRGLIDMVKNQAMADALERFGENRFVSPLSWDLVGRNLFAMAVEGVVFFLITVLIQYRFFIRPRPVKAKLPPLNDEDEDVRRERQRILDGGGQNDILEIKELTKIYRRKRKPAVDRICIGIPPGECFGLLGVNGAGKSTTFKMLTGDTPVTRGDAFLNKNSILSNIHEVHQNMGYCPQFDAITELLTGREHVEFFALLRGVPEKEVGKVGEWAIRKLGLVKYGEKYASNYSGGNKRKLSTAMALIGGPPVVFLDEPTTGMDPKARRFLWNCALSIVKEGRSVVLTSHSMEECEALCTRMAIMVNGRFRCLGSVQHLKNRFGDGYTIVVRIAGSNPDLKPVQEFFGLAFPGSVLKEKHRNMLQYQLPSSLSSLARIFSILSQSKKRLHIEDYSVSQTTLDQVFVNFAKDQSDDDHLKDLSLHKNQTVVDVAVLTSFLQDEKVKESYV

Regarding “ATI-5261: HDL mimetic peptide, parent peptide; triglyceride elevating and muscle toxic peptide used as positive control (EVRSKLEEWFAAFREFAEEFLARLKS) [reference compound]”, the “peptide concentration at saturation in cholesterol efflux” value in the test with ABCA1 [1] (setting [3]) was “roughly 3 μg/ml”. In the test with ABCG1, the “ABCG1 mediated cholesterol efflux” value is “poorly active”. Besides, the “capacity of peptide-treated plasma to stimulate cholesterol efflux via ABCA1” value in the test on human plasma was “greater capacity to stimulate cholesterol efflux”. Moreover, in the test with ABCA1 [2] (J774 macrophages with/without cAMP, peptide 10 μg/ml), the “ABCA1-dependent cholesterol efflux activity” value is recorded as “overall greater efflux response”.

As to “EVCitSKLEEWLAALCitELAEELLARLKS (SEQ ID NO:2) (EV[Cit]SKLEEWLAAL[Cit]ELAEELLARLKS) [CS6253, citrulline form of LeuATI-5261, R3,14→Citrulline, 26-mer]”, the “cholesterol efflux activity compared with parent ATI-5261” value in the test with ABCA1 [1] (J774 cells with and without cAMP) is recorded as “identical to that observed using the parent ATI-5261 peptide”. For the same substance, in the test with ABCA1 [1] (cAMP treated J774, lipid-free peptide, 4 h, Michaelis Menten equation), the “Km (cholesterol efflux potency) on molar basis” value is “near apolipoproteins molar potency”. In the test with ABCA1 [1] (setting [3]), the “Km for cholesterol efflux” value is on record as “high potency; also recorded: low Km” and the “peptide concentration at saturation in cholesterol efflux” value came to 3 µg/mL. The “ABCG1 mediated cholesterol efflux” value with ABCG1 is “relatively poor activity”. Besides, the “capacity of peptide-treated plasma to stimulate cholesterol efflux via ABCA1” value in the test on human plasma is “greater capacity to stimulate cholesterol efflux”. Also, the “association of peptide with HDL species in plasma” value in the test on HDL in human plasma (antibody against CS6253) is “associated with α-HDL”. In the test with HDL in human plasma (peptide:endogenous apoA-I 1:10 mole ratio, apoA-I antibody), the “preβ HDL formation” value is reported as “increase in preβ HDL”. The “preβ-HDL (2D gel, apoA-I antibody)” value with hamsters (hamsters, 100 mg/kg sc, 1 h, 2 h, and 4 h) was “preβ-HDL increase”. In addition, in the test on hamsters (setting [4]), the LDL entry is reported as “LDL lowering” and the “small HDL” value was “small HDL increase”. Also, the ABCA1-dependent cholesterol efflux entry in the test with ABCA1 [2] (J774 with/without cAMP, acceptors lipid-free, 4 h) is “stimulated ABCA1-dependent cholesterol efflux similar to native apolipoproteins”.
